According to PMC12697964:

Target: N-terminal region deleted seYdjB-like protein (amino acid from 35 to 162) (Salmonella enterica)
Test: SEC-MALS; Superdex 75 10/300 GL, SEC buffer (20 mM Tris-HCl pH 8.0, 150 mM NaCl), 0.6 mL/min; three-angle light scattering and refractive index detectors; BSA as reference

N-terminal region deleted seYdjB-like protein (amino acid from 35 to 162) (domain or fragment)
stoichiometry N: 2
